# Measured values published in PMC10387068.
# How the values were obtained:
# [1] = molecular target: heterotrimeric Gq 4A (Gαq 4A with Venus(1-155)-β1 and Venus(156-239)-γ2), P50148;P62873;P59768; assay: BRET assay (receptor-Nluc and Venus-tagged βγ subunits); settings: values normalized to cells transfected with the same FZD5-Nluc construct but no Gq 4A; parent: est. 111; read off a plot
# [2] = molecular target: DEP-Venus (isolated DEP domain of human DVL2 tagged with mVenus) (UniProt O14641); assay: direct BRET titration; settings: HEK293A cells, constant receptor-Nluc plasmid, increasing DEP-Venus plasmid, read off a plot; for other: BRETmax: parent: est. 0.23; for other: log BRET50: parent: est. 2.6
Substance,response [1] [% BRET],other: BRETmax [2],other: log BRET50 [2]
"FZD5-Nluc (wild-type human Frizzled-5, C-terminally tagged with Nanoluciferase) (from UniProt Q13467) C2×50A",101,0.12,2.8
"FZD5-Nluc (wild-type human Frizzled-5, C-terminally tagged with Nanoluciferase) (from UniProt Q13467) G5×58A",106,0.21,2.5
"FZD5-Nluc (wild-type human Frizzled-5, C-terminally tagged with Nanoluciferase) (from UniProt Q13467) G5×65A",115,0.25,2.4
"FZD5-Nluc (wild-type human Frizzled-5, C-terminally tagged with Nanoluciferase) (from UniProt Q13467) L3×52A",103,0.18,2.8
"FZD5-Nluc (wild-type human Frizzled-5, C-terminally tagged with Nanoluciferase) (from UniProt Q13467) M3×37A",103,0.16,3
"FZD5-Nluc (wild-type human Frizzled-5, C-terminally tagged with Nanoluciferase) (from UniProt Q13467) M6×30A",111,0.21,3.2
"FZD5-Nluc (wild-type human Frizzled-5, C-terminally tagged with Nanoluciferase) (from UniProt Q13467) R6×32A",106,0.15,4.1
"FZD5-Nluc (wild-type human Frizzled-5, C-terminally tagged with Nanoluciferase) (from UniProt Q13467) T1×50A",111,0.22,3.2
"FZD5-Nluc (wild-type human Frizzled-5, C-terminally tagged with Nanoluciferase) (from UniProt Q13467) T1×53A",106,0.19,3.1
"FZD5-Nluc (wild-type human Frizzled-5, C-terminally tagged with Nanoluciferase) (from UniProt Q13467) W3×43A",108,0.22,2.6
"FZD5-Nluc (wild-type human Frizzled-5, C-terminally tagged with Nanoluciferase) (from UniProt Q13467) W7×55A",111,0.19,3.4
"FZD5-Nluc (wild-type human Frizzled-5, C-terminally tagged with Nanoluciferase) (from UniProt Q13467) Y2×39A",108,0.17,3.4
"FZD5-Nluc (wild-type human Frizzled-5, C-terminally tagged with Nanoluciferase) (from UniProt Q13467) Y2×51A",101,0.15,2.7
"FZD5-Nluc (wild-type human Frizzled-5, C-terminally tagged with Nanoluciferase) (from UniProt Q13467) Y6×51A",106,0.2,2.5
"FZD5-Nluc (wild-type human Frizzled-5, C-terminally tagged with Nanoluciferase) (from UniProt Q13467) Y6×53A",100,0.13,3.1

# The remaining lines, values ahead:
response [1] [% BRET],other: BRETmax [2],other: log BRET50 [2],Substance
108,0.19,2.5,"FZD5-Nluc (wild-type human Frizzled-5, C-terminally tagged with Nanoluciferase) (from UniProt Q13467) F3×29A"
102,0.14,3.1,"FZD5-Nluc (wild-type human Frizzled-5, C-terminally tagged with Nanoluciferase) (from UniProt Q13467) F4×45A"
108,0.23,2.4,"FZD5-Nluc (wild-type human Frizzled-5, C-terminally tagged with Nanoluciferase) (from UniProt Q13467) G6×34A"
102,0.16,2.7,"FZD5-Nluc (wild-type human Frizzled-5, C-terminally tagged with Nanoluciferase) (from UniProt Q13467) L5×48A"
113,0.24,2.4,"FZD5-Nluc (wild-type human Frizzled-5, C-terminally tagged with Nanoluciferase) (from UniProt Q13467) L5×62A"
109,0.22,2.7,"FZD5-Nluc (wild-type human Frizzled-5, C-terminally tagged with Nanoluciferase) (from UniProt Q13467) L6×52A"
107,0.22,2.2,"FZD5-Nluc (wild-type human Frizzled-5, C-terminally tagged with Nanoluciferase) (from UniProt Q13467) M7×44A"
107,0.2,2.5,"FZD5-Nluc (wild-type human Frizzled-5, C-terminally tagged with Nanoluciferase) (from UniProt Q13467) V3×44A"
105,0.19,2.5,"FZD5-Nluc (wild-type human Frizzled-5, C-terminally tagged with Nanoluciferase) (from UniProt Q13467) V45×52A"
102,0.14,2.7,"FZD5-Nluc (wild-type human Frizzled-5, C-terminally tagged with Nanoluciferase) (from UniProt Q13467) W6×61A"
105,0.19,2.9,"FZD5-Nluc (wild-type human Frizzled-5, C-terminally tagged with Nanoluciferase) (from UniProt Q13467) W8×54A"
